Target: the molecule itself
Assay: single-molecule fluorescence photobleaching step counting; 40 pM Cy5-labeled C2AB incubated 30 min at room temperature on a DiI-labeled supported lipid bilayer (15% DOPS, with or without 1% PIP2), no Ca2+; unbound protein removed; photobleaching steps per fluorescent spot fitted to a Poisson distribution and corrected for unlabeled fragments; printed numbers are with 1% PIP2

Row | Protein | stoichiometry N [molecules]
1 | Syt1 C2B domain-containing C2AB fragment, C2AB (A418C), Cy5-labeled (domain or fragment, Sulfo-Cy5 maleimide label (labeling efficiency 34.5%-42%)) KLGKLQYSLDYDFQNNQLLVGIIQAAELPALDMGGTSDPYVKVFLLPDKKKKFETKVHRKTLNPVFNEQFTFKVPYSELGGKTLVMAVYDFDRFSKHDIIGEFKVPMNTVDFGHVTEEWRDLQSAEKEEQEKLGDICFSLRYVPTAGKLTVVILEAKNLKKMDVGGLSDPYVKIHLMQNGKRLKKKKTTIKKNTLNPYYNESFSFEVPFEQIQKVQVVVTVLDYDKIGKNDAIGKVFVGYNSTGAELRHWSDMLANPRRPIAQWHTLQVEEEVDAMLCVKK | 6.85
2 | C2AB_F349A (A418C), Cy5-labeled (domain or fragment, Sulfo-Cy5 maleimide label (labeling efficiency 34.5%-42%)) KLGKLQYSLDYDFQNNQLLVGIIQAAELPALDMGGTSDPYVKVFLLPDKKKKFETKVHRKTLNPVFNEQFTFKVPYSELGGKTLVMAVYDFDRFSKHDIIGEFKVPMNTVDFGHVTEEWRDLQSAEKEEQEKLGDICFSLRYVPTAGKLTVVILEAKNLKKMDVGGLSDPYVKIHLMQNGKRLKKKKTTIKKNTLNPYYNESFSFEVPAEQIQKVQVVVTVLDYDKIGKNDAIGKVFVGYNSTGAELRHWSDMLANPRRPIAQWHTLQVEEEVDAMLCVKK | 3.03
